Substitutions are numbered along the chain they refer to. In names and notes the source's numbering stands.
B1: Archaeoglobus fulgidus exosome cap subunit Csl4 (natural protein)
chain: MRFVMPGDRIGSAEEYVKGEGVYEEGGELFAAVAGKLIIKDRVAKVESISPIPEIVKGDVVLGRVVDLRNSIALIEVSSKKGENRGPSNRGIGILHVSNVDEGYVKEISEAVGYLDILKARVIGDNLRLSTKEEEMGVLRALCSNCKTEMVREGDILKCPECGRVEKRKISTDYGKGEW
B2: Archaeoglobus fulgidus exosome subunit Rrp41 (natural protein)
chain: MSEFNEKPEKLIVDGLRLDGRKFDELRPIKIEASVLKRADGSCYLEMGKNKVIAAVFGPREVHPRHLQDPSKAIIRYRYNMAPFSVEERKRPGPDRRSIEISKVSKEAFEAVIMKELFPRSAIDIFVEVLQADAGSRTACLNAASVALVDAGVPMKGMITSVAVGKADGQLVLDPMKEEDNFGEADMPFAFLIRNGKIESIALLQMDGRMTRDEVKQAIELAKKGALQIYEMQREAILRRYIEVGEEMDEITEGGEDA
B3: Archaeoglobus fulgidus exosome subunit Rrp41 D180A (natural protein)
chain: B2 chain with D180A
B4: Archaeoglobus fulgidus exosome cap subunit Rrp4 (natural protein, UniProt O29758 1-223, looked up)
chain: MRKIVLPGDLLSTNPRAAGYGTYVEGGKVYAKIIGLFDQTETHVRVIPLKGRYTPSVGDVVIGIIREVAANGWAVDIYSPYQAFLPVSENPEMKPNKKPNEVLDIGDAIIAKVLNIDPKMKVTLTMKDRICRPIRFGRIVAINPARVPRVIGKKGSMIKLLKSELDVQIVVGQNGLIWVNGDRRKVSIAEEAIYLIEQEAHTEGLTDRVAEFIKRRKADVGIQ

Columns and labels:
[1] = target: B2; assay: crystal structure
[2] = target: T1, Archaeoglobus fulgidus exosome subunit Rrp42 (Archaeoglobus fulgidus, UniProt O29756 1-259); assay: crystal structure
T1 sequence: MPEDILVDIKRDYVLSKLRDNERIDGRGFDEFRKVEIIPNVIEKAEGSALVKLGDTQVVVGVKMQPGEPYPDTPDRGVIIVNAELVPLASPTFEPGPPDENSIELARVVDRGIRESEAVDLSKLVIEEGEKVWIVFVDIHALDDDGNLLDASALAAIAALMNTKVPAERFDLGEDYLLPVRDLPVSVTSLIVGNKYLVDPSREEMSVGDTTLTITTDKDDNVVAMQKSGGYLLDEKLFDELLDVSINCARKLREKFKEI

[3] = target: T2, Archaeoglobus fulgidus exosome subunit Rrp42 Y70A (Archaeoglobus fulgidus, UniProt O29756 1-259, Y70A); assay: crystal structure
T2 sequence: T1 sequence with Y70A

[4] = target: T1, Archaeoglobus fulgidus exosome subunit …; assay: SAXS
[5] = target: B3; assay: SAXS
[6] = target: T3, Rrp41 (archaeal exosome subunit);Rrp42 Y70A;Csl4 (exosome cap) (Archaeoglobus fulgidus (printed …, UniProt O29757;O29756;O30033 1-258;1-259;1-179, |Y70A|)); assay: X-ray crystallography
T3 sequence 1: B2 chain
T3 sequence 2: T1 sequence with Y70A
T3 sequence 3: B1 chain

[7] = target: T4, Rrp41 (archaeal exosome subunit);Rrp42 (archaeal exosome subunit);Csl4 (exosome cap) (Archaeoglobus fulgidus (printed …, UniProt O29757;O29756;O30033 1-258;1-259;1-179, ||)); assay: X-ray crystallography
T4 sequence 1: B2 chain
T4 sequence 2: T1 sequence
T4 sequence 3: B1 chain

Binder | binding result [2] | binding result [3] | binding result [4] | also measured
B1 | binds | binds |  | binding result [1]: binds
B2 | binds | binds |  | 
B3 |  |  | binds | 
B4 |  |  | binds | binding result [5]: binds
CCCCUC (ssRNA) [6-mer RNA for crystallization] |  |  |  | binding result [6]: binds; binding result [7]: binds

— paper PMC2926604 (Nucleic Acids Research, 2010)
